According to paper PMC9953004, “Scandium-44 Radiolabeled Peptide and Peptidomimetic Conjugates Targeting Neuropilin-1 Co-Receptor as Potential Tools for Cancer Diagnosis and Anti-Angiogenic Therapy” (Biomedicines, 2023):
Like-named read-outs stand apart in the source and are kept apart here. Where a SMILES comes first, the peptide text is derived from it. [ ]: non-standard residue; d: D form. The star is where a group is joined. DOTA = O=C(O)CN1CCN(CC(=O)O)CCN(CC(=O)*)CCN(CC(=O)O)CC1

Tests used:
[1] = format: physicochemical; conditions: pH 7.4
Description: (§1) Radioconjugate stability tests in 0.1 M PBS solution, 1 mM cysteine (Cys) solution, 1 mM histidine (His) solution and human serum (HS) were performed under rigorous conditions according to the procedure described in detail in our previous paper. In brief, isolated radioconjugates were dissolved in 50 µL PBS and appropriate volume of Cys, His and HS solution and then incubated at 37 °C. After the specified incubation time (depending on the half-life of a given radionuclide), which was up to 4–8 h for the ^44Sc-radiocompounds, 4 h for the ^68Ga-radiocompounds and about 6–14 days for the ^177Lu-radiocompounds, aliquots of solution were withdrawn from the mixture and the composition of the solution was analyzed on RP-HPLC in System 3 or 4 with gamma detection. The concentrations of Cys and His solutions were about 1000 times higher than that of the studied radiocompound. In the case of the radioconjugate stability study in HS, the concentration of the radiocompound was a maximum of 2–25 nmol/mL in 100% human serum. After incubation, the protein components were precipitated with a 2.5-fold volume excess of ethanol prior to RP-HPLC analysis, and then both the supernatant and precipitate radioactivity were measured with a Wizard gamma counter. The percentage of radioactivity remaining in the supernatant and bound by the precipitated serum protein components was calculated as the ratio of the radioactivity of the supernatant or the precipitate, respectively, to the sum of the radioactivity of the supernatant and the precipitate.

[2] = format: in vitro ADME, human
Description: as §1

physchem = format: physicochemical; conditions: pH 7.4
Description: The lipophilicity value, defined as the decimal logarithm (logP) of the partition coefficient (P), was tested in the system of two immiscible (but saturated with each other) phases: 0.1 M PBS solution, pH 7.4, and n-octanol, in three independent experiments. Partition coefficient was determined as a ratio of radioactivity of the organic (n-octanol) and aqueous (PBS solution) phases and was shown as the mean ± SD. The lipophilicity test was carried out as follows: the tested radiocompound dissolved in 10–20 µL of PBS was incubated and intensively mixed in an equal amount of these two phases. After centrifugation, radioactivity of appropriate amounts of the separated organic (500 µL) and aqueous (100 µL) phases were measured on the Wizard gamma counter. Differences in the volume of phases taken for measurement resulted from the very low radioactivity of organic phases and were included in the calculations. Additionally, to confirm the stability of the studied radiocompounds during the experiment, the RP-HPLC analyses of the aqueous phase were performed after each lipophilicity test.

[3] = pH 7.4; cited from earlier work

Compound	stability in PBS buffer [1]	stability in human serum [2]	logP ± SD (physchem)	logP ± SD [3]
CC(C)C[C@@H](NC(=O)[C@H]1CCCN1C(=O)[C@H]1CCCN1C(=O)[C@H](N)CCCNC(=N)N)C(=O)N[C@H](Cc1c[nH]c2ccccc12)C(=O)N[C@@H](C(=O)N[C@H](C)C(=O)N[C@H](CCCCNC(=O)CN1CCN(CC(=O)O)CCN(CC(=O)O)CCN(CC(=O)O)CC1)C(=O)O)[C@H](C)O [^68Ga-3, [^68Ga]^DR7A-^DLys(DOTA-Ga), metal not drawn] (H-[dR][dP][dP][dL][dW][dT][dA][dK](DOTA)-OH)	complete stability	insufficient stability	−4.11 ± 0.06	
CC(C)C[C@H](NC(=O)[C@H](Cc1c[nH]c2ccccc12)NC(=O)[C@@H](NC(=O)[C@H](C)NC(=O)[C@@H](N)CCCCNC(=O)CN1CCN(CC(=O)O)CCN(CC(=O)O)CCN(CC(=O)O)CC1)[C@@H](C)O)C(=O)N1CCC[C@H]1C(=O)N1CCC[C@H]1C(=O)N[C@@H](CCCNC(=N)N)C(=O)O [^177Lu-1bis, [^177Lu]Lys(DOTA-Lu)-A7R, metal not drawn] (H-K(DOTA)ATWLPPR-OH)	complete stability	insufficient stability	−4.45 ± 0.03	
CC(C)C[C@@H](NC(=O)[C@H]1CCCN1C(=O)[C@H]1CCCN1C(=O)[C@H](N)CCCNC(=N)N)C(=O)N[C@H](Cc1c[nH]c2ccccc12)C(=O)N[C@@H](C(=O)N[C@H](C)C(=O)N[C@H](CCCCNC(=O)CN1CCN(CC(=O)O)CCN(CC(=O)O)CCN(CC(=O)O)CC1)C(=O)O)[C@H](C)O [^177Lu-3, [^177Lu]^DR7A-^DLys(DOTA-Lu), metal not drawn] (H-[dR][dP][dP][dL][dW][dT][dA][dK](DOTA)-OH)	complete stability	insufficient stability	−4.48 ± 0.05	
[^68Ga]Ga-DOTA-Ahx-A7R [^68Ga-1]				−3.92 ± 0.03
[^68Ga]Lys(hArg)-Dab(Ahx-DOTA-Ga)-Pro-Arg [^68Ga-2]				−4.57 ± 0.05
[^177Lu]Lu-DOTA-Ahx-A7R [^177Lu-1]				−3.40 ± 0.14
[^177Lu]Lys(hArg)-Dab(Ahx-DOTA-Lu)-Pro-Arg [^177Lu-2]				−3.75 ± 0.08
